Measured values: patent publication US20250066745A1, “MUTANTS AND USE THEREOF” (BGI SHENZHEN, priority 2021, published 2025)

B1: F26R N27D V29D A30G A32D S33N T37A L40P: Gaussia luciferase mutant (protein)
chain: MGVKVLFALICIAVAEAKPTENNEDRDIDGVDNNFAATDPDADRGKLPGKKLPLEVLKEMEANARKAGCTRGCLICLSHIKCTPKMKKFIPGRCHTYEGDKESAQGGIGEAIVDIPEIPGFKDLEPMEQFIAQVDLCVDCTTGCLKGLANVQCSDLLKKWLPQRCATFASKIQGQVDKIKGAGGD
modifications: SIGNAL (1)..(17)
notes: Gaussia luciferase mutant
B2: F26I A30D A32V S33G A36D T37K L40V: Gaussia luciferase mutant (protein)
chain: MGVKVLFALICIAVAEAKPTENNEDINIVDVVGNFDKTDVDADRGKLPGKKLPLEVLKEMEANARKAGCTRGCLICLSHIKCTPKMKKFIPGRCHTYEGDKESAQGGIGEAIVDIPEIPGFKDLEPMEQFIAQVDLCVDCTTGCLKGLANVQCSDLLKKWLPQRCATFASKIQGQVDKIKGAGGD
modifications: SIGNAL (1)..(17)
notes: Gaussia luciferase mutant
B3: F26L N27D V29P A30G V31I A32G S33A A36T T37C L40E I112T: Gaussia luciferase mutant (protein)
chain: MGVKVLFALICIAVAEAKPTENNEDLDIPGIGANFTCTDEDADRGKLPGKKLPLEVLKEMEANARKAGCTRGCLICLSHIKCTPKMKKFIPGRCHTYEGDKESAQGGIGEATVDIPEIPGFKDLEPMEQFIAQVDLCVDCTTGCLKGLANVQCSDLLKKWLPQRCATFASKIQGQVDKIKGAGGD
modifications: SIGNAL (1)..(17)
notes: Gaussia luciferase mutant
B4: F26L N27D V29D A30G S33N A36I T37D L40R: Gaussia luciferase mutant (protein)
chain: MGVKVLFALICIAVAEAKPTENNEDLDIDGVANNFIDTDRDADRGKLPGKKLPLEVLKEMEANARKAGCTRGCLICLSHIKCTPKMKKFIPGRCHTYEGDKESAQGGIGEAIVDIPEIPGFKDLEPMEQFIAQVDLCVDCTTGCLKGLANVQCSDLLKKWLPQRCATFASKIQGQVDKIKGAGGD
modifications: SIGNAL (1)..(17)
notes: Gaussia luciferase mutant
B5: F26L N27D A30D V31L A32V S33N A36N T37A L40S: Gaussia luciferase mutant (protein)
chain: MGVKVLFALICIAVAEAKPTENNEDLDIVDLVNNFNATDSDADRGKLPGKKLPLEVLKEMEANARKAGCTRGCLICLSHIKCTPKMKKFIPGRCHTYEGDKESAQGGIGEAIVDIPEIPGFKDLEPMEQFIAQVDLCVDCTTGCLKGLANVQCSDLLKKWLPQRCATFASKIQGQVDKIKGAGGD
modifications: SIGNAL (1)..(17)
notes: Gaussia luciferase mutant
B6: F26L N27D V29A V31L A32D S33N T37E L40T: Gaussia luciferase mutant (protein)
chain: MGVKVLFALICIAVAEAKPTENNEDLDIAALDNNFAETDTDADRGKLPGKKLPLEVLKEMEANARKAGCTRGCLICLSHIKCTPKMKKFIPGRCHTYEGDKESAQGGIGEAIVDIPEIPGFKDLEPMEQFIAQVDLCVDCTTGCLKGLANVQCSDLLKKWLPQRCATFASKIQGQVDKIKGAGGD
modifications: SIGNAL (1)..(17)
notes: Gaussia luciferase mutant
B7: F26I V29F A30G A32E S33D A36N T37D L40T: Gaussia luciferase mutant (protein)
chain: MGVKVLFALICIAVAEAKPTENNEDINIFGVEDNFNDTDTDADRGKLPGKKLPLEVLKEMEANARKAGCTRGCLICLSHIKCTPKMKKFIPGRCHTYEGDKESAQGGIGEAIVDIPEIPGFKDLEPMEQFIAQVDLCVDCTTGCLKGLANVQCSDLLKKWLPQRCATFASKIQGQVDKIKGAGGD
modifications: SIGNAL (1)..(17)
notes: Gaussia luciferase mutant
B8: F26I N27H V29G A32G S33D A36G T37L L40I: Gaussia luciferase mutant (protein)
chain: MGVKVLFALICIAVAEAKPTENNEDIHIGAVGDNFGLTDIDADRGKLPGKKLPLEVLKEMEANARKAGCTRGCLICLSHIKCTPKMKKFIPGRCHTYEGDKESAQGGIGEAIVDIPEIPGFKDLEPMEQFIAQVDLCVDCTTGCLKGLANVQCSDLLKKWLPQRCATFASKIQGQVDKIKGAGGD
modifications: SIGNAL (1)..(17)
notes: Gaussia luciferase mutant
B9: F26D N27H V29K A30G A32G S33L T37L L40R: Gaussia luciferase mutant (protein)
chain: MGVKVLFALICIAVAEAKPTENNEDDHIKGVGLNFALTDRDADRGKLPGKKLPLEVLKEMEANARKAGCTRGCLICLSHIKCTPKMKKFIPGRCHTYEGDKESAQGGIGEAIVDIPEIPGFKDLEPMEQFIAQVDLCVDCTTGCLKGLANVQCSDLLKKWLPQRCATFASKIQGQVDKIKGAGGD
modifications: SIGNAL (1)..(17)
notes: Gaussia luciferase mutant
B10: F26G N27Y A30D V31L A32V S33R A36M T37E L40G: Gaussia luciferase mutant (protein)
chain: MGVKVLFALICIAVAEAKPTENNEDGYIVDLVRNFMETDGDADRGKLPGKKLPLEVLKEMEANARKAGCTRGCLICLSHIKCTPKMKKFIPGRCHTYEGDKESAQGGIGEAIVDIPEIPGFKDLEPMEQFIAQVDLCVDCTTGCLKGLANVQCSDLLKKWLPQRCATFASKIQGQVDKIKGAGGD
modifications: SIGNAL (1)..(17)
notes: Gaussia luciferase mutant
B11: F26I N27D V29S A30G V31L A32V S33D A36V T37E L40G: Gaussia luciferase mutant (protein)
chain: MGVKVLFALICIAVAEAKPTENNEDIDISGLVDNFVETDGDADRGKLPGKKLPLEVLKEMEANARKAGCTRGCLICLSHIKCTPKMKKFIPGRCHTYEGDKESAQGGIGEAIVDIPEIPGFKDLEPMEQFIAQVDLCVDCTTGCLKGLANVQCSDLLKKWLPQRCATFASKIQGQVDKIKGAGGD
modifications: SIGNAL (1)..(17)
notes: Gaussia luciferase mutant
B12: F26I N27D V29D A30G A32E S33G A36T L40S del117-119 D139H: Gaussia luciferase mutant (protein)
chain: MGVKVLFALICIAVAEAKPTENNEDIDIDGVEGNFTTTDSDADRGKLPGKKLPLEVLKEMEANARKAGCTRGCLICLSHIKCTPKMKKFIPGRCHTYEGDKESAQGGIGEAIVDIPGFKDLEPMEQFIAQVDLCVHCTTGCLKGLANVQCSDLLKKWLPQRCATFASKIQGQVDKIKGAGGD
modifications: SIGNAL (1)..(17)
notes: Gaussia luciferase mutant

How the values were obtained:
Type in all cases: biochemical
Design in all cases: key to Activity of mutant relative to wild-type Gaussia luciferase without the signal peptide: ratio of mutant luminescence intensity to wild-type Gaussia luciferase
[1] = Luminescence activity assay of purified Gaussia luciferase mutants on coelenterazine derivative ZS2; conditions: Substrate ZS2 (Table 16)
In short: (§1)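 Readout: luminescence intensity, as ratio to signal-peptide-free wild-type enzyme. Enzyme 1 μg/mL, substrate 100 μM stock, 10 μL + 90 μL; buffer 50 mM Tris-HCl pH 8.0, 100 mM NaCl, 0.1% Tween-20.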

[2] = Luminescence activity assay of purified Gaussia luciferase mutants on fluoro-coelenterazine; conditions: Substrate f-CTZ (Table 16)
Description: In this Example, the protein concentration was determined with a BCA quantitative kit (Thermo Scientific™ Pierce™ BCA Protein Assay Kit) accurately. The purified luciferase obtained in Example 5 was diluted with diluent (50 mM Tris-HCl, pH 8.0, 100 mM NaCl, 0.1% (v/v) Tween-20) to 1 μg/mL. The diluted luciferase, taken for 10 μL, was moved into a black 96-well plate, then added with 90 μL of the substrates coelenterazine, fluoro-coelenterazine or coelenterazine derivative ZS2 (purchased from Biolab) which was diluted into 100 μM with the same diluent, and the luminescence intensity of the plate was read with a self-luminescence module of a microplate reader. The mutation site of the mutant, the measured luminescence intensity, the ratio of luminescence intensities of the advantageous mutants to the wild-type Gaussia luciferase without the signal peptide having the sequence shown in SEQ ID NO: 3 are shown in Table 15. The results of catalytic activity assay of the advantageous mutants relative to the wild-type Gaussia luciferase without the signal peptide having the sequence shown in SEQ ID NO: 3 on substrate coelenterazine are shown in FIG. 6. […] The results of catalytic activity assay of the advantageous mutants relative to the wild-type Gaussia luciferase without the signal peptide having the sequence shown in SEQ ID NO: 3 on substrate fluoro-coelenterazine are shown in FIG. 7.
The new mutant library constructed in Example 7 was screened and tested for substrate specificity. Expression and purification schemes were the same as that in Example 5, and the activity assay scheme was the same as that in Example 6. The respective catalytic activities of combinatorial mutants on coelenterazine, fluoro-coelenterazine or coelenterazine derivative ZS2, and coelenterazine derivative ZS26 (purchased from BIOLAB) were assayed, and comparisons among the substrate specificities of the combinatorial mutants were based on the ratios of catalytic activities on two corresponding substrates.

[3] = Luminescence activity assay of purified Gaussia luciferase mutants on coelenterazine; conditions: Substrate CTZ (Table 16)
In short: as §1

Molecule | Activity of mutant relative to wild-type Gaussia luciferase without the signal peptide [1] | Activity of mutant relative to wild-type Gaussia luciferase without the signal peptide [2] | Activity of mutant relative to wild-type Gaussia luciferase without the signal peptide [3]
B1 | 0.031 | 0.049 | 0.031
B2 | 2.392 | – | 0.636
B3 | 0.395 | – | 0.001
B4 | 1.989 | – | 0.726
B5 | 1.802 | – | 0.799
B6 | 0.191 | – | 0.000
B7 | 0.000 | – | 1.120
B8 | 0.479 | – | 0.055
B9 | 0.381 | – | 0.037
B10 | 1.203 | – | 0.003
B11 | 2.094 | – | 0.788
B12 | 0.010 | – | 0.043
